For this assay, the target named is T1, iRFP-pMagH-C-term VHHActin.
T1 construct: not shown: iRFP fluorescent protein of the piRFP construct (Addgene 31857)
The assay is described as follows: inferred from relocalisation of fluorescence in HeLa cells after 488 nm light (nMagH with pMagH).

T1 sequence (chain, as listed by the source): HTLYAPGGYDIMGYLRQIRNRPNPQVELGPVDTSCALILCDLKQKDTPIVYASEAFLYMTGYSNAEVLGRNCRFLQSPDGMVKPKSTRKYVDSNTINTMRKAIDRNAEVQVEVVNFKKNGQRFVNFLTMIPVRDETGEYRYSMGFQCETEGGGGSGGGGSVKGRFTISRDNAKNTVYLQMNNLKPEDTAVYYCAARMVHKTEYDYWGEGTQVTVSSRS

B1: N-term VHHActin-nMagH-mCherry (other)
chain: MAQVQLVESGGGLTQAGGSLRLSCATSGLIFSAFGMGWFRQAPGKEREFVGGINWRGSTNYGDFGGGGSGGGGSHTLYAPGGYDIMGYLDQIGNRPNPQVELGPVDTSCALILCDLKQKDTPIVYASEAFLYMTGYSNAEVLGRNCRFLQSPDGMVKPKSTRKYVDSNTINTIRKAIDRNAEVQVEVVNFKKNGQRFVNFLTIIPVRDETGEYRYSMGFQCETE
notes: not shown: mCherry red fluorescent protein of the pmCherry construct (engineered)
As to B1, the binding result is “binds”.

The values above are taken from patent US20190092839A1 (INSTITUTE FOR BASIC SCIENCE, published 2019).
